From article PMC11279616 (Pharmaceuticals, 2024)
Values joined by “and” are separate entries in the source; they are usually repeats but may differ in a detail not shown here. Identical values can stand only once.

Target: SARS-CoV-2 Omicron BA.5 sublineage receptor binding domain (RBD) (SARS-CoV-2) (UniProt P0DTC2)
Experiment: SPR

DPP4_(270–295) peptide
Kd: 1.2 µM and 1.53 µM | koff: 0.0014 s⁻¹ | kon: 1160 M⁻¹ s⁻¹
